For assay [1], the target named is HIV-1 CA hexamers (A14C/E45C/W184A/M185A) (HIV-1). Put plainly: SEC; size-exclusion chromatographic profiles of purified individual CA hexamers, pentamers and monomers.
The target in assay [2] is HIV-1 CA pentamers (A21C/E22C/W184A/M185A) (HIV-1). The description is as above.

For orientation: stoichiometry N means a count of units in the complex or per binding partner.

“HIV-1 CA hexamers (A14C/E45C/W184A/M185A) (natural protein)” gave a stoichiometry N in assay [1] of 6.

In the case of “HIV-1 CA pentamers (A21C/E22C/W184A/M185A) (natural protein)”, the stoichiometry N in assay [2] is 5.

For the origin of these results see publication PMC4259888.
